Source: a protein production outcome set (Wang et al. 2014)

experiment: label from the status in PepcDB records
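Also: failed if final PepcDB status was selected cloned or expressed and not failed if soluble or beyond.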

Sequence	protein production
MQVRIERAERIESELEEHVGDQTFVEESRFLEEDEQREGEILDQIIFVDGKRRSFVRITTDEGITGIFAELCVGAVIWDREGGTKTLFSPDKPPVKERVLGFSQSFQEEGYEEVGGILFKVVKEGKDAMQSIDLYMRSLEIEEVRKHMDKNILIVKDGPAARELPFEENVGPIGLVKNIGVTELSKEDFKKLRFLKKGKRSKMFVSSRETPLKKVGAYVKLIDGEGIRGLVRLETYVKDDNQIPYIRKVFDDLAKTLPHLTADLPIPRLPENILPIQFLEENLSYYLTDKNYMNTRLFAYIGR	not failed
MQVTADAVPKLNRAAVAAGSADIDAVSGATYTSAGYVKSLQSALDKAAAAAGPAAQESSGADSGSGGGGRSEGDAGQGTQVLTGDAAQTQYGPVQVRVTVSGGRITDVEALQAPKGGRSDQVTADAVPRLNRAAVAAGTADIDAVSGATYTSAGYTQSLQSALDRAGGLEHHHHHH	failed
MQWANLALFLTEAIVYFSVMTAFLHYRHILGIGVFLTALGVMHFLETYLAAVFYVQLPFGVASPGSSILFAGKLMMILMLYMREDAAVVRQPIYGLFLGNILTVIMAQIIRFHQTVAIVPGQSVSTGFLDEMGILMVWGTSLLYIDAIAIILFYEKLGRYLQRHIVLRFAICGVVILSFDQAGFYGALRLLFNAPVDVFYDGWKAKMAAVGIYSLLFATYLWLTAAKGRFLTRRSVADVFNDLTFRERYEELLSRSGRDMLTGVSDRARMELDAPSLVVECLEKRRPVSVLIVDIDHFKTVNDTFGHLQGDEILREFAAVLKRAVQPLGHLYRFGGEEFVALLPAMTHETALAFSASLRVAVLAELQRPDGSPLTVSIGVATAFEDGQLFRALLSEADAWLYAAKNNGRDQVHGRHGMWVG	failed
MQWIYLCFAILFEVAGTTAMKLSDGLTKLVPSILIFVFYVVSFAFLSFALKGMEMSVAYAVWSGMGIVTITTIGFIYFGESINIIKILAILFILVGVVILNFNSTAHEAKKKEMVEERIH	failed
MQYIFSIISGIIVGFSLGLIGGGGSILAIPLLIYFVGIKNPHLVIGTTALAVGINALINVYSHLRKKNVSLRTGAIFTVFGILGVLLGTTLGLITPGGKLLFLFSFLMIVIGAYMFITKCKTCKNYDAIPKKNNNDDPPDPPKKGLWQKIKLEVFGVLAGFASGYFGIGGGFLIVPALLYSADITMNLAVGTSLMSVGTFGLVTALRYGIAGKVLVTIALLYVLGGIFGGYAGAKLSSSMKRSTLRRFFSLIIIVVGIYMAIESFSAVF	failed
MQYIKQIMLLVILTISWKCQAEEVKEIWLDELGESSYYIQDWGLPRINKAVTMTPLTVKGIVYERGIGTHAISRMLFDIGKKAKTLSGLAGADDNTPFACNLQFKILGDRKELWRSGIMRKGDPAKPFNIDLSGIDKVLLLVEECGDGMMYDRADWLNVKFTTLGDVQPIPVWPKPIAKEKYILTPQSPDAPQINNPLTYGARPGNPFLMPIMVSGKRPMTYKAKGLPKGLKLNRKTGLITGSTNTNGNFKVRLQATNEKGTDEKEITLKIGSEIMLTPPMGWNSWNCWRFAADDQKVRDAARIMHEKLQAYGWTYVNIDDGWEADERTPEGELPANEKFPDFKTLTDYIHSLGLKFGIYSSPGWTTCGRHIGSCQHELTDAKTWEKWGVDYLKYDYCGYAAIEKNSEEKTIQEPFIVMRNALDQIKRDIVYCVGYGAPNVWNWGAEAGGNLWRTTRDINDQWNIVMAIGCFQDVCAYVSAPGKYNDPDMLVVGKLGPGWGAKSHDSDLTADEQYAHISLWSILSAPLLLGCDMTAIDDFTLGLLTNPEVIAVNQDPLVAPATKLTVPNGQIWYKKLYDGSYALGFFQMDPYFILWDQDKAVNIQQQKYNFNFALNQLGIQGKVKIRDLWRQKNLGIFSGSYETSIPYHGVSLIKITPIK	failed
MQYQGRSKRSKTGARLRPRSKKSKSELGREPTETTVGEPRFRTVDVRGDAEKVRVLSTNVVNVATDSGAERATIEDVSANDANPNYARRNIITKGAIIETDAGTARVTSRPGQDGQVNATRVDE	failed
MRAAFRTLGCKVNQVETEALLGFLKALEPEVVPLEAGGADLVVINSCAVTTTAEADTRKEVRRARRYNPHAFIVVTGCYAELAPEVLKELGADAVVPNARKAELPRVILERFGLPSDPITTPPNEFWGAGERGLLNSRVRAFLKVQDGCQAGCAYCIIPRLRGKERHRDHREALAEAEALLRMGIKEIVLTGVRLGSYKGHPRGLAGLVEDLYHLGAKVRLSSIEPEDTGEDLLKVIGRYAPEVRPHLHLSLQTGSDRLLKLMGRRYDKAYYRELVQRAYDLIPGFALTTDVIAGLPTETEEEHRETLAFLEELRPTRVHAFTYTPRPKTRAASMPQVPPEVRKRRTKELIALAQRLAEERIRPRLGERVEVLVERVQGGEALGHTPDYYEARLEGEARPGETVWARVHGVEGYVLLGRVEGVKEGARGPLELPVRLEHHHHHH	failed
MRAASTSKPVGAHEETGHLGGAHSTYVSSAQVTNAEHENELQVVDLPRAPPSLSKAVTYFYITGFGRFALMEDNPTERVVLRLREILQDPGRVQMLHERLVRIVDLRILEVSAAAAHETLAEMKTQCLQMRQKPNISSDGRNRTVCFLHLGVDASADGFLVERSAVNEALFRFPDERGWQPTTPIPIVRGAQLGARYELDGEALASLCERTESLLNEWGRTNWTVRVNDDAGRFLCNYLFYLSAFEGLAENGHHLWQTFFLHCPMETVAPLDVQVDVVLAFMVAVAQSNAQQGPLEGILAR	not failed
MRAGFFVGILGLAGAILQGANVTEAVGSELVLFPSGGGLSAIAAIVALLTAAVLVAVGIFTGYPIATAFTVTGAVVGVGLAMGGQPATAKYIEIVSLWVLTPFVGGGIAFGTAWSLRHEATTEERLVPLLGGLVGVILANIEFVLLAPGSEQASVARAVARAAGTPIFPSMVVVTLLIGVLAGGLLYLDIRADAAAGQRHFLLVMGGLVAFSAGGSQVGLALGPLVPLLGEGPTAAIPITGVLLFGGLGLLVGSWTGAPRMIKALAQDYSSLGPRRSIGALIPSFIIAQAAVFFGIPVSFNEIIVSAIVGSGAAAGGGEVSREKMGKTVLAWIGSLALAFALSYGLFWIIDAAL	failed
MRAGIVGSGIMGRLLAFVLHNAGWQVSLFDRSNESMNCSTAAAGLLTPFSELDKSILLISTLGQESIKNCWPRIIEDLPESVYFQQSGSLVLCHPGDQAEWIHFSRRILSQLNPSNSVFQKLSHENLIALEPELTKFETAYYFPNEAHIDCQTLMLSLKNYLDSVCIPHITNTPVLSLKPGEINTKEQRYHFDVVFDCRGLGAQNVFSDLRGIRGELIWLHAPGVQLHRPIRLLHPRYSLYLVPRPGNFYLIGASEIEAEDFSPVSVRTALELLTAVYYLHRNFDEARIIKTVTHCRPTLVNHLPRIKFADGLIAVNGLYRHGYLIAPALAEEILRGVTSNFRHLNYPELWENYCDLEHHHHHH	failed
MRAHTLSRQLREGNLFAEQCPSREVLKHVTSRWGVLILVALRDGTHRFSDLRRKMGGVSEKMLAQSLQALEQDGFLNRVSYPVVPPHVEYSLTPLGEQVSDKVAALADWIELNLPQVLAQRERLSDGG	not failed
MRAILILLDGLGDRASEILNNKTPLQFAKTPNLDRLAENGMCGLMTTYKEGIPLGTEVAHFLLWGYSLEEFPGRGVIEALGEDIEIEKNAIYLRASLGFVKKDEKGFLVIDRRTKDISREEIEKLVDSLPTCVDGYKFELFYSFDVHFILKIKERNGWISDKISDSDPFYKNRYVMKVKAIRELCKSEVEYSKAKDTARALNKYLLNVYKILQNHKINRKRRKLEKMPANFLLTKWASRYKRVESFKEKWGMNAVILAESSLFKGLAKFLGMDFIKIESFEEGIDLIPELDYDFIHLHTKETDEAAHTKNPLNKVKVIEKIDKLIGNLKLREDDLLIITADHSTPSVGNLIHSGESVPILFYGKNVRVDNVKEFNEISCSNGHLRIRGEELMHLILNYTDRALLYGLRSGDRLRYYIPKDDEIDLLEG	failed
MRAKITYAVTAAVLVVYFVLVGSRGVLLIQNGTLVTVTFGVAVLILPVIGVWFLWKNTQFVRKANALAAELDAEGGLPVDELRRTPGGRIDRDSADEVFARRKAETEDAPGDWRSWFRLAVAYHDARDTPRARKAMQRAIALHEGRPVEA	failed
MRAPLPELPAGTRFGAWAIDRLIGAGGMGQVYLGHRADGAYEREVAIKLVAADALDAQGRALFEFECRLLAQMVHPAIAQIHDVGTDAHGQPYLVMEYLRGEPITWWCDEHRLSLHARVLLMLRVGEAVQHAHQKGVIHRDLKPSNVLVSEIDGRPMPGVIDFGIAVDATNPGMTYAHDRGTPGYMSPEQARGAQDVDARSDIYALGAMFYELSCGLAPVAGRDGVPQPPSQRVAAVPADARARICAARATTYQKLHEQLRDGLDAIVLRALEPQPGARYASVSALLDDLHRWLDGYPPRALQASRWLRLRKFTQRHRSGVAAAGLAAIAVVAGLGATLWSLQQAARDAQRAQVTGDFMSSVLSSVDPGVARDLDKTLMLRVMQQASQRAARELADQPDARTQVELTLGRTLIALANFPQAVEHLRIAQTLAQQTAGAGSLPALKAASMLGQALTGDGKPGDAERVLRQGIAQAARGDAQQQAMGNELRAWLAWALREQGRMRDALAESRHAYVAALANASSSADQRIDAGNSYAAMLADNGQLVPAIALQRSLLRERMAMRGPEHPLVVSMRNSLAVFLLMQRDFAGAEAELVPLLRVTRTLYGESAADTLMIEGNLAGALRQQGKVAEAGPYYRRALERARAAFGNDAPVTIAYRSNHAFWLLDDGQVDASLAEQRAALTASERVLGRAHPQTAEILRGMSEAERRLGQTVAARDHARQALQILTGIFGDADAPLRAARQTLASATPPADSREAEATTAVAQR	failed
MRARLYAAFRQVGEDLFAQGLISATAGNFSVRTKGGFLITKSGVQKARLTPEDLLEVPLEGPIPEGASVESVVHREVYRRTGARALVHAHPRVAVALSFHLSRLRPLDLEGQHYLKEVPVLAPKTVSATEEAALSVAEALREHRACLLRGHGAFAVGLKEAPEEALLEAYGLMTTLEESAQILLYHRLWQGAGPALGGGE	not failed
MRARPYPTSTYFVSTADGRLPAMSQPIAAPFRQQLLDLVARIPPGRVMTYGQLALLAGQPGAARQAGAVMHSLKDSDLPWQRVINAQGRVSTYKVGLGEVQEGLLRAEGIEFDDAGRCDLSRYQWWPDENAANIAQRLL	failed
MRASHETTTSMGHDHNHAPSEIRHETPLWWALGLTATFLLAEIIGAFVTNSLALLSDAAHMATDTVGLMIALVAVRLSRRPADARRTYGYVRLEALGALANGALLFAVGGYILWEAAQRVRAPQDIAYGGMLLIAGFGLVINLIAMKLLHAGSGESLNVKGAYLEVWSDMLGSMAVIIGALLIHWTSWQWIDPVLAVLIGLWVLPRTWVLLREAINVLLEGVPKGIDLAQVQQALTSHPGVEDVHDLHVWALASSTPALTAHIVVNEATDRDRLRDALATLLHDRFDIVHVTLQVESGDCGTEPCGTPKPAADAGHDAHHGHSHAHGHSHH	failed
MRAVIPYKKAGAKSRLSPVLSLQEREEFVELMLNQVISSLKGAGIEQVDILSPSVYGLEEMTEARVLLDEKDLNEALNRYLKEAEEPVLIVMADLPLLSPEHIKEISSTEKDVCIVPGKGGGTNALFIKNPSKYRVKYYGSSFLTHCSIATDSGQDFEIYDSFMAGTDIDEPEDLVELLIHGKGAAKDYIESKFRLEVKKGRVGLVPL	not failed
